Source: patent US20100150931A1 (CENTRE HOSPITALIER DE L UNIVERSITE DE MONTREAL, published 2010)

Columns and labels:
CD40 on BJAB B cells = target: T1, CD40 on BJAB B cells (human, UniProt P25942 21-277); assay: flow cytometry, competition with sCD40L-Alexa on BJAB cells
T1 construct: whole, on cells; also called CD40-positive human BJAB B cell line

[1] = target: T2, α5β1 integrin on cells (U937 and other CD40-negative cell lines) (human, UniProt P08648 42-1049; P05556 21-798); assay: flow cytometry, competition with sCD40L-Alexa on U937 cells
T2 construct: whole, on cells; U937 cells are CD40-negative; also called VLA-5; CD49e/CD29

[2] = target: T2, α5β1 integrin on cells (U937 and other …); assay: cell-based or functional assay

T2 sequence (P08648 42-1049, chain 1 of 2): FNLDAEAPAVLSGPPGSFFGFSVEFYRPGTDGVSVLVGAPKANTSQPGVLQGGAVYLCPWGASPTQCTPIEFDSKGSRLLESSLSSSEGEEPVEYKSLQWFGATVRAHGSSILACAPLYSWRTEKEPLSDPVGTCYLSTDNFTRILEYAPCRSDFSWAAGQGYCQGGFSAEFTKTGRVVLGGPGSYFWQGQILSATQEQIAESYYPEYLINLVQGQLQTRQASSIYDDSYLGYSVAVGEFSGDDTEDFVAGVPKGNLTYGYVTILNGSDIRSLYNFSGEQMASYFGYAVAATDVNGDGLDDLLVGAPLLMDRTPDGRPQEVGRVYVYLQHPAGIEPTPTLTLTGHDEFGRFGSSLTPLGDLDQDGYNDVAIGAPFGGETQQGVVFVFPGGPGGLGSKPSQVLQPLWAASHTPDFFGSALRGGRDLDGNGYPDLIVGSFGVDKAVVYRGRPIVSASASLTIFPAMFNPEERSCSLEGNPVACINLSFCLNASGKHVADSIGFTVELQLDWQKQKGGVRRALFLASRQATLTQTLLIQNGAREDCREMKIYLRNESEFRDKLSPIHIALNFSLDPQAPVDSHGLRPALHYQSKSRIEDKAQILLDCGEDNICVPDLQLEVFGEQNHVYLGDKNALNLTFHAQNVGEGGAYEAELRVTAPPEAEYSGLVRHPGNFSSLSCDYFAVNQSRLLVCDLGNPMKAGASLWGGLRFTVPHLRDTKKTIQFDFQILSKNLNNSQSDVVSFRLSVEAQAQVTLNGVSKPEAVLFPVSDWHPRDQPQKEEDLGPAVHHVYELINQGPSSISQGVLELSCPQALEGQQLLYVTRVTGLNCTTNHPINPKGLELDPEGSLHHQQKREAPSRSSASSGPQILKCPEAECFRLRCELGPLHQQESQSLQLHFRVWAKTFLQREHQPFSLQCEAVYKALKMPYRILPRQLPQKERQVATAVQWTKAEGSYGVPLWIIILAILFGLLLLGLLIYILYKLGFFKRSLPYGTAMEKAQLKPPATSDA
T2 sequence (P05556 21-798, chain 2 of 2): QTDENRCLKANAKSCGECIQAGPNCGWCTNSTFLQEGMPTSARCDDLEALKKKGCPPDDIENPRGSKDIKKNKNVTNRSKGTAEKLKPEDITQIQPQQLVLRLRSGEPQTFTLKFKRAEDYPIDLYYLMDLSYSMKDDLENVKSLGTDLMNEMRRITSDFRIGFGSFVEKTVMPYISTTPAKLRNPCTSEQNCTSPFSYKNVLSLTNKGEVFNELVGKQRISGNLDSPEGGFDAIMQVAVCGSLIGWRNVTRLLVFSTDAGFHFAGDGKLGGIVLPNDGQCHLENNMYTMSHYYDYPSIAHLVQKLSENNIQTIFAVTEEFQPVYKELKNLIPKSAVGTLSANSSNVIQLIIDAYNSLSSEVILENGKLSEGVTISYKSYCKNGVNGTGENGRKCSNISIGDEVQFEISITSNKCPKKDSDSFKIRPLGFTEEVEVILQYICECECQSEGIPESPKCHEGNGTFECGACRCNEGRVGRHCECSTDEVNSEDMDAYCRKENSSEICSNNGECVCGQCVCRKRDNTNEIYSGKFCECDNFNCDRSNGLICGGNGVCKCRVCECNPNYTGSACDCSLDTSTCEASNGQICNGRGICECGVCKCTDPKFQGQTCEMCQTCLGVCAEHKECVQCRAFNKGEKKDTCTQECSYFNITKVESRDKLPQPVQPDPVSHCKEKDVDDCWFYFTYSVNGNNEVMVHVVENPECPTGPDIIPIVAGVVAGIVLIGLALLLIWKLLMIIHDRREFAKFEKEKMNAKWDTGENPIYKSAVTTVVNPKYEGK
T1 sequence (P25942 21-277): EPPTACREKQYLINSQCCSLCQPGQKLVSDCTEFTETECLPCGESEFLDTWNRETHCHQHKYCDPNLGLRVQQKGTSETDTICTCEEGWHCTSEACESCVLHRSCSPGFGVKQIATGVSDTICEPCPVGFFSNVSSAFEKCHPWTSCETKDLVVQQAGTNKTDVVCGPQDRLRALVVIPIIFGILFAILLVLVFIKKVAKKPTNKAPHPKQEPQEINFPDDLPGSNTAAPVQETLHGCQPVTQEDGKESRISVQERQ

Row | Binder | binding result (CD40 on BJAB B cells) | binding result [1] | IL-8 mRNA expression (RT-PCR, U937 cells) [2] [fold increase]
1 | CD40L Y170A (monomeric soluble human CD40L mutant) (ligand, Made in Drosophila S2 cells from the soluble human CD40L construct M113 to L261 with Y170 changed to alanine; Numbering of Y170 is that of full-length human CD40L; also called hsCD40LY170A; hCD40L mutated in its Y170 residue; not shown: C-terminal V5 / hexahistidine tag from the pMT-BiP/V5-His A vector) MQKGDQNPQIAAHVISEASSKTTSVLQWAEKGYYTMSNNLVTLENGKQLTVKRQGLYAIYAQVTFCSNREASSQAPFIASLCLKSPGRFERILLRAANTHSSAKPCGQQSIHLGGVFELQPGASVFVNVTDPSQVSHGTGFTSFGLLKL | binds | binds | –
2 | CD40L G227A (monomeric soluble human CD40L mutant) (ligand, Made in Drosophila S2 cells from the soluble human CD40L construct M113 to L261 with G227 changed to alanine; also called hCD40L mutated in its G227 residue; not shown: C-terminal V5 / hexahistidine tag from the pMT-BiP/V5-His A vector) MQKGDQNPQIAAHVISEASSKTTSVLQWAEKGYYTMSNNLVTLENGKQLTVKRQGLYYIYAQVTFCSNREASSQAPFIASLCLKSPGRFERILLRAANTHSSAKPCGQQSIHLGAVFELQPGASVFVNVTDPSQVSHGTGFTSFGLLKL | binds | binds | –
3 | Recombinant trimeric soluble CD40L (ligand, UniProt P29965 51-261, looked up, Alexa Fluor-488 label in the form called rsCD40L-A; unlabelled in the solid phase assay and in cell stimulation) DKIEDERNLHEDFVFMKTIQRCNTGERSLSLLNCEEIKSQFEGFVKDIMLNKEETKKENSFEMQKGDQNPQIAAHVISEASSKTTSVLQWAEKGYYTMSNNLVTLENGKQLTVKRQGLYYIYAQVTFCSNREASSQAPFIASLCLKSPGRFERILLRAANTHSSAKPCGQQSIHLGGVFELQPGASVFVNVTDPSQVSHGTGFTSFGLLKL | – | – | 2.5
